Assay results from publication PMC9789152.
Where “and” joins values, the source holds several entries; their conditions need not be identical. Equal entries are not always repeated.

Tests used:
[1] = target: S. mutans surface protein antigen I/II (Ag I/II), proline repeat working fragment (Streptococcus mutans UA159); test: cryo-TEM of self-assembly; protein stock (10 mg/mL, pH 3.5) diluted 10 times with 4 mM PBS (pH 7.4 in the methods, pH 8.0 in the results); 10 min assembly reaction, plunge-frozen
[2] = target: recombinant human amelogenin (AmH) (human); test: as above

| stoichiometry N [2] | Substance | stoichiometry N [1] |
| --- | --- | --- |
| – | S. mutans surface protein antigen I/II (Ag I/II), proline repeat working fragment (domain or fragment) | 6 monomers and 10 monomers |
| 6 monomers and 8 monomers | recombinant human amelogenin (AmH) (natural protein) | – |
